Experimental data reported in patent publication US5998172.
Each block holds one molecule with its values, some of them ahead of it.

Columns and labels:
[1] = biological target: activated leucocyte-cell adhesion molecule (ALCAM), CD6 ligand (human); test: indirect immunofluorescence and flow cytometry, cultured TE cells; control
[2] = biological target: activated leucocyte-cell adhesion molecule (ALCAM), CD6 ligand (human); test: flow cytometry, TE cells, buffer with 5 mM MnCl2
[3] = biological target: activated leucocyte-cell adhesion molecule (ALCAM), CD6 ligand (human); test: flow cytometry, TE cells after CD40 mAb; CD5-Rg subtracted
[4] = biological target: activated leucocyte-cell adhesion molecule (ALCAM), CD6 ligand (human); test: flow cytometry, TE cells after CD66 mAb; CD5-Rg subtracted
[5] = biological target: activated leucocyte-cell adhesion molecule (ALCAM), CD6 ligand (human); test: flow cytometry, TE cells after CD59 mAb; CD5-Rg subtracted
[6] = biological target: activated leucocyte-cell adhesion molecule (ALCAM), CD6 ligand (human); test: indirect immunofluorescence and flow cytometry, cultured TE cells
[7] = biological target: activated leucocyte-cell adhesion molecule (ALCAM), CD6 ligand (human); test: flow cytometry, TE cells after CD24 mAb
[8] = biological target: activated leucocyte-cell adhesion molecule (ALCAM), CD6 ligand (human); test: flow cytometry, TE cells after CD51 mAb
[9] = biological target: activated leucocyte-cell adhesion molecule (ALCAM), CD6 ligand (human); test: flow cytometry, TE cells, buffer with 5 mM CaCl2
[10] = biological target: activated leucocyte-cell adhesion molecule (ALCAM), CD6 ligand (human); test: flow cytometry, TE cells after CD51 mAb; CD5-Rg subtracted
[11] = biological target: activated leucocyte-cell adhesion molecule (ALCAM), CD6 ligand (human); test: flow cytometry, TE cells after CD9 mAb; CD5-Rg subtracted
[12] = biological target: activated leucocyte-cell adhesion molecule (ALCAM), CD6 ligand (human); test: flow cytometry, TE cells after CD9 mAb
[13] = biological target: activated leucocyte-cell adhesion molecule (ALCAM), CD6 ligand (human)
[14] = biological target: activated leucocyte-cell adhesion molecule (ALCAM), CD6 ligand (human); test: flow cytometry, TE cells after control mAb P3; CD5-Rg subtracted
[15] = biological target: activated leucocyte-cell adhesion molecule (ALCAM), CD6 ligand (human); test: flow cytometry, TE cells after CD59 mAb
[16] = biological target: activated leucocyte-cell adhesion molecule (ALCAM), CD6 ligand (human); test: flow cytometry, TE cells after CD54 mAb
[17] = biological target: activated leucocyte-cell adhesion molecule (ALCAM), CD6 ligand (human); test: flow cytometry, HBL-100 cells after control mAb P3
[18] = biological target: activated leucocyte-cell adhesion molecule (ALCAM), CD6 ligand (human); test: flow cytometry, TE cells after CD58 mAb
[19] = biological target: activated leucocyte-cell adhesion molecule (ALCAM), CD6 ligand (human); test: flow cytometry, HBL-100 cells after mAb J4-81
[20] = biological target: activated leucocyte-cell adhesion molecule (ALCAM), CD6 ligand (human); test: flow cytometry, TE cells after CD40 mAb
[21] = biological target: activated leucocyte-cell adhesion molecule (ALCAM), CD6 ligand (human); test: flow cytometry, HBL-100 cells, 10 to 200 µg/ml
[22] = biological target: activated leucocyte-cell adhesion molecule (ALCAM), CD6 ligand (human); test: flow cytometry, TE cells after mAb J4-81
[23] = biological target: activated leucocyte-cell adhesion molecule (ALCAM), CD6 ligand (human); test: flow cytometry, TE cells after CD46 mAb; CD5-Rg subtracted
[24] = biological target: activated leucocyte-cell adhesion molecule (ALCAM), CD6 ligand (human); test: flow cytometry, TE cells after CD63 mAb; CD5-Rg subtracted
[25] = biological target: activated leucocyte-cell adhesion molecule (ALCAM), CD6 ligand (human); test: flow cytometry, TE cells after control mAb P3
[26] = biological target: activated leucocyte-cell adhesion molecule (ALCAM), CD6 ligand (human); test: flow cytometry, TE cells after CD66 mAb
[27] = biological target: activated leucocyte-cell adhesion molecule (ALCAM), CD6 ligand (human); test: flow cytometry, TE cells after CD63 mAb
[28] = biological target: activated leucocyte-cell adhesion molecule (ALCAM), CD6 ligand (human); test: flow cytometry, HBL-100 cells after mAb J4-81; CD5-Rg subtracted
[29] = biological target: activated leucocyte-cell adhesion molecule (ALCAM), CD6 ligand (human); test: flow cytometry, TE cells after CD46 mAb
[30] = biological target: activated leucocyte-cell adhesion molecule (ALCAM), CD6 ligand (human); test: flow cytometry, HBL-100 cells after control mAb P3; CD5-Rg subtracted
[31] = biological target: activated leucocyte-cell adhesion molecule (ALCAM), CD6 ligand (human); test: flow cytometry, TE cells after CD24 mAb; CD5-Rg subtracted
[32] = biological target: activated leucocyte-cell adhesion molecule (ALCAM), CD6 ligand (human); test: flow cytometry, TE cells after mAb J4-81; CD5-Rg subtracted
[33] = biological target: activated leucocyte-cell adhesion molecule (ALCAM), CD6 ligand (human); test: flow cytometry, TE cells after CD54 mAb; CD5-Rg subtracted
[34] = biological target: activated leucocyte-cell adhesion molecule (ALCAM), CD6 ligand (human); test: flow cytometry, TE cells, buffer with 5 mM MgCl2
[35] = biological target: activated leucocyte-cell adhesion molecule (ALCAM), CD6 ligand (human); test: flow cytometry, TE cells, 10 mM EDTA against DME with 5% FBS
[36] = biological target: activated leucocyte-cell adhesion molecule (ALCAM), CD6 ligand (human); test: flow cytometry, TE cells after CD58 mAb; CD5-Rg subtracted
[37] = biological target: activated leucocyte-cell adhesion molecule (ALCAM), CD6 ligand (human); remark: listed apart in the source

Molecule: human IgG1 (control)
MFC (linear mean fluorescence channel) [1]: 72.9

B1: CD6, P30203 (protein)
chain: HPSPAPPDQLNTSSAESELWEPGERLPVRLTNGSSSCSGTVEVRLEASWEPACGALWDSRAAEAVCRALGCGGAEAASQLAPPTPELPPPPAAGNTSVAANATLAGAPALLCSGAEWRLCEVVEHACRSDGRRARVTCAENRALRLVDGGGACAGRVEMLEHGEWGSVCDDTWDLEDAHVVCRQLGCGWAVQALPGLHFTPGRGPIHRDQVNCSGAEAYLWDCPGLPGQHYCGHKEDAGAVCSEHQSWRLTGGADRCEGQVEVHFRGVWNTVCDSEWYPSEAKVLCQSLGCGTAVERPKGLPHSLSGRMYYSCNGEELTLSNCSWRFNNSNLCSQSLAARVLCSASRSLHNLSTPEVPASVQTVTIESSVTVKIENKESRELMLLIPSIVLGILLLGSLIFIAFILLRIKGKYALPVMVNHQHLPTTIPAGSNSYQPVPITIPKEVFMLPIQVQAPPPEDSDSGSDSDYEHYDFSAQPPVALTTFYNSQRHRVTDEEVQQSRFQMPPLEEGLEELHASHIPTANPGHCITDPPSLGPQYHPRSNSESSTSSGEDYCNSPKSKLPPWNPQVFSSERSSFLEQPPNLELAGTQPAFSAGPPADDSSSTSSGEWYQNFQPPPQPPSEEQFGCPGSPSPQPDSTDNDDYDDISAA
% COS cells binding TE cells [37]: 25%

Further lines, results first:

MFC (linear mean fluorescence channel) [1]: 72.1
Molecule: CD5-Rg fusion protein (from UniProt P06127) (Fc fusion)

relative binding with 5 mM MnCl2 [2]: 318%
Δ Fluorescence [3]: 48
Δ Fluorescence [4]: 56
Δ Fluorescence [5]: 52
MFC (linear mean fluorescence channel) [6]: 165
% Binding [7]: 92%
% inhibition [7]: 8%
% Binding [8]: 88%
% inhibition [8]: 12%
relative binding with 5 mM CaCl2 [9]: 144%
Δ Fluorescence [10]: 46
Δ Fluorescence [11]: 60
% Binding [12]: 115%
% inhibition [12]: -15%
% Inhibition of thymocyte-thymic epithelial cell binding (rosettes) [13]: 34.5%
Δ Fluorescence [14]: 52
% Binding [15]: 100%
% inhibition [15]: 0%
% Binding [16]: 85%
% inhibition [16]: 15%
% Binding [17]: 100%
% inhibition [17]: 0%
% Binding [18]: 87%
% inhibition [18]: 13%
% Binding [19]: 59%
% Binding [20]: 92%
% inhibition [20]: 8%
saturating concentration [21]: 100 µg/mL
% Binding [22]: 40%
Δ Fluorescence [23]: 57
Δ Fluorescence [24]: 53
% Binding [25]: 100%
% inhibition [25]: 0%
% Binding [26]: 108%
% inhibition [26]: -8%
% Binding [27]: 102%
% inhibition [27]: -2%
Δ Fluorescence [28]: 34
% Binding [29]: 110%
% inhibition [29]: -10%
Δ Fluorescence [30]: 58
Δ Fluorescence [31]: 48
Δ Fluorescence [32]: 21
Δ Fluorescence [33]: 44
relative binding with 5 mM MgCl2 [34]: 94%
% inhibition of binding by 10 mM EDTA [35]: 54%
Δ Fluorescence [36]: 45
Molecule: CD6-Rg fusion protein (CD6 receptor globulin) (from UniProt P30203) (Fc fusion)

MFC (linear mean fluorescence channel) [1]: 70.5
Molecule: ELAM1-Rg fusion protein (from UniProt P16581) (Fc fusion)
